The source of these data is publication PMC6033261 (Methods in molecular biology (Clifton, N.J.), 2015).

For the assay, the target named is His-Rab7 (UniProt P51149 1-207). Briefly: bead-based flow cytometry. (In general: In flow cytometry, cells or beads pass a laser one at a time.)
Sequence of His-Rab7 (P51149 whole entry): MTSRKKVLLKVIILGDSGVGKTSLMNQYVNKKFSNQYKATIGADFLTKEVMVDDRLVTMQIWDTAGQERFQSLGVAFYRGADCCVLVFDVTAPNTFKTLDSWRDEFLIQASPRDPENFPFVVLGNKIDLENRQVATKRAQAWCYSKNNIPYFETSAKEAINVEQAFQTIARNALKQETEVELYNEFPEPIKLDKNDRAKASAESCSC

B1: GST-RILP (Rab binding domain of RILP only) (domain or fragment, UniProt Q96NA2 240-316, looked up)
chain: QCRFSREEFEQILQERNELKAKVFLLKEELAYFQRELLTDHRVPGLLLEAMKVAVRKQRKKIKAKMLGTPEEAESSE
For orientation: Kd means the free concentration of one partner at which half of the binding sites on the other are occupied at equilibrium, for simple one-to-one binding. A high value points to weaker binding. The molecule B1 came in with a Kd of 1870 ± 250 nM.
